The values that follow are results of earlier work, collected in article PMC7300301.

This data set has as its target FcRn (Homo sapiens) (UniProt P55899).

Chain of FcRn (Homo sapiens) (P55899 24-297, chain 1 of 2): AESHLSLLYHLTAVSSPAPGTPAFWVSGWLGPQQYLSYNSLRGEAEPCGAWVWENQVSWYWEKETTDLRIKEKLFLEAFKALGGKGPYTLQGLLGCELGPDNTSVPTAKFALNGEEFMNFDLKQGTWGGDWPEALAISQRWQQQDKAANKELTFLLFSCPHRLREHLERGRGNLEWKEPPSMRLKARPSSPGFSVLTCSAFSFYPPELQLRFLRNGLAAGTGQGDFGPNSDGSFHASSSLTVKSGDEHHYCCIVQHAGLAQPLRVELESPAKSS
Chain of FcRn (Homo sapiens) (partner, as listed by the source, chain 2 of 2): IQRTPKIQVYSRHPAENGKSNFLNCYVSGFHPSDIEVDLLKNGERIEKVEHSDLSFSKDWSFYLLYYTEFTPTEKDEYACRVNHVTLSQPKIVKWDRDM

Turning to palivizumab, the Kd (as a rule, the equilibrium constant for the complex coming apart) was 750 nM.
